Target: T1, Rv0287 (Mycobacterium tuberculosis, UniProt O53692 1-97)
T1 sequence: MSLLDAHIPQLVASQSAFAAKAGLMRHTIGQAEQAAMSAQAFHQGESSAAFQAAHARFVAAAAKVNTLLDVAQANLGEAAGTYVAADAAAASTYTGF
Experiment: pull-down
Conditions: both partners purified

B1: TB10.4 (natural protein)
chain: MSQIMYNYPAMLGHAGDMAGYAGTLQSLGAEIAVEQAALQSAWQGDTGITYQAWQAQWNQAMEDLVRAYHAMSSTHEANTMAMMARDTAEAAKWGG
notes: also called Rv0288
  binding result: binds
